Reference: the supplement of paper PMC10724198
± gives the standard deviation of the averaged measurements.

Test system: Saccharomyces cerevisiae
Test: protein stability index of tFT-peptide fusion (C-terminal peptide) (PSI (0-1 scale)); higher = more stable (slower turnover)
Conditions: temperature: 30 C
Experimental: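 MPS profiling in S. cerevisiae of the yeast C-terminome library: the last 12 aa of each annotated ORF are fused to the C-terminus of a sfGFP-mCherry timer, after a GGGS linker. Cells are FACS-sorted into 8 mCherry/sfGFP bins and deep-sequenced. PSI runs from 0 (unstable) to 1 (stable); wild type and das1Δ backgrounds, two technical replicates each.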

[1] = genetic background: das1 deletion

| Sequence | protein stability index [1] | protein stability index (genetic background: wild type) |
| --- | --- | --- |
| IARLEKLLSGGV [LEA1 C-terminal 12 aa] | 0.692 ± 0.017 | 0.686 ± 0.0076 |
| KKEKISKYVSKS [OPI11 C-terminal 12 aa] | 0.725 ± 0.0098 | 0.683 ± 0.035 |
| DGKSVNKYGAKK [GUS1 C-terminal 12 aa] | 0.6798 ± 0.0063 | 0.699 ± 0.029 |
| KIKKIVLKRSFD [NMD2 C-terminal 12 aa] | 0.7019 ± 0.0021 | 0.654 ± 0.022 |
| RLPRSFLFLNKK [YOR343C C-terminal 12 aa] | 0.723 ± 0.01 | 0.665 ± 0.028 |
| VTGKEKFEKLRD [SPG3 C-terminal 12 aa] | 0.724 ± 0.0027 | 0.685 ± 0.024 |
| VTPEEDEEEDEE [RPL22A C-terminal 12 aa] | 0.68 ± 0.03 | 0.676 ± 0.062 |
| GSNELLSILHRK [DCP2 C-terminal 12 aa] | 0.73 ± 0.018 | 0.694 ± 0.059 |
| TLEDEALQRNSK [JNM1 C-terminal 12 aa] | 0.722 ± 0.0093 | 0.686 ± 0.017 |
| QLEEELMDMLDD [FCP1 C-terminal 12 aa] | 0.674 ± 0.01 | 0.6692 ± 0.0016 |
| TRSAWDRAQRRL [LCP5 C-terminal 12 aa] | 0.697 ± 0.015 | 0.674 ± 0.013 |
| EKRFPEVMMLEK [FET4 C-terminal 12 aa] | 0.703 ± 0.026 | 0.679 ± 0.0099 |
| TSASSNLDDSFS [YPR002C-A C-terminal 12 aa] | 0.69 ± 0.019 | 0.6996 ± 0.002 |
| AVDYILRLFGFL [COQ2 C-terminal 12 aa] | 0.72 ± 0.013 | 0.537 ± 0.019 |
| CVDCGTVVNNFR [LAF1 C-terminal 12 aa] | 0.723 ± 0.019 | 0.688 ± 0.025 |
| KQVNEDADSDLL [KEL1 C-terminal 12 aa] | 0.6784 ± 0.0013 | 0.682 ± 0.013 |
| PEHPGNKRAGSG [YER145C-A C-terminal 12 aa] | 0.6885 ± 0.00081 | 0.6979 ± 0.0024 |
| QREEALISLNDW [REV3 C-terminal 12 aa] | 0.726 ± 0.016 | 0.713 ± 0.025 |
| DGSGKYFLKHDS [KTR2 C-terminal 12 aa] | 0.706 ± 0.0039 | 0.708 ± 0.04 |
| CIISIVVFPTCI [BIO5 C-terminal 12 aa] | 0.286 ± 0.016 | 0.285 ± 0.0088 |
| GLRYDMVHKLIS [SLH1 C-terminal 12 aa] | 0.688 ± 0.025 | 0.212 ± 0.028 |

| Sequence | protein stability index [1] | protein stability index (genetic background: wild type) |
| --- | --- | --- |
| APVAAGESESSL [SRO9 C-terminal 12 aa] | 0.6991 ± 0.0048 | 0.687 ± 0.007 |
| DFVDMYQTEHSG [MTF1 C-terminal 12 aa] | 0.712 ± 0.0088 | 0.7301 ± 0.0034 |
| DSMRGNSRNNMF [EBS1 C-terminal 12 aa] | 0.7083 ± 0.0062 | 0.717 ± 0.021 |
| SRDYEETEYSVI [SPP381 C-terminal 12 aa] | 0.709 ± 0.025 | 0.687 ± 0.062 |
| KISKSELEGVPS [MTC6 C-terminal 12 aa] | 0.722 ± 0.019 | 0.714 ± 0.045 |
| PSGNIVMERLDE [UBX3 C-terminal 12 aa] | 0.6901 ± 0.0013 | 0.64 ± 0.021 |
| KGNSMVVHGAQS [SHE3 C-terminal 12 aa] | 0.687 ± 0.026 | 0.6853 ± 0.0059 |
| QTSAKISIRLLY [SER3 C-terminal 12 aa] | 0.6607 ± 0.00096 | 0.582 ± 0.0062 |
| NTTHYNDTLLKQ [PHO3 C-terminal 12 aa] | 0.738 ± 0.0097 | 0.6619 ± 0.0058 |
| NPPISVSVTGDE [SRT1 C-terminal 12 aa] | 0.687 ± 0.0084 | 0.6978 ± 0.0036 |
| PLFADYLNKNLN [KTI12 C-terminal 12 aa] | 0.7162 ± 0.0014 | 0.671 ± 0.014 |
| MELWYTCLSKNL [YCR050C C-terminal 12 aa] | 0.694 ± 0.048 | 0.671 ± 0.034 |
| LLLQFPPYLPHD [LAG2 C-terminal 12 aa] | 0.75 ± 0.019 | 0.7442 ± 0.0048 |
| PSIARILEFMQS [SAY1 C-terminal 12 aa] | 0.729 ± 0.013 | 0.654 ± 0.09 |
| YDLVEKCVWRGI [ORC3 C-terminal 12 aa] | 0.707 ± 0.041 | 0.716 ± 0.022 |
| VRQMNRLATPLI [PUS2 C-terminal 12 aa] | 0.7095 ± 0.0057 | 0.7391 ± 0.0066 |
| FDSNVSVAVDER [SET5 C-terminal 12 aa] | 0.699 ± 0.022 | 0.651 ± 0.027 |
| NTEPPEAPAATN [AFG3 C-terminal 12 aa] | 0.73 ± 0.032 | 0.668 ± 0.028 |
| IGEFADNVMPLA [PRY2 C-terminal 12 aa] | 0.709 ± 0.026 | 0.712 ± 0.0076 |
| LGNNAVGLAKAI [PEP4 C-terminal 12 aa] | 0.7 ± 0.0012 | 0.678 ± 0.055 |
| IKALQDSLFKDV [NUP188 C-terminal 12 aa] | 0.718 ± 0.013 | 0.705 ± 0.042 |

| Sequence | protein stability index [1] | protein stability index (genetic background: wild type) |
| --- | --- | --- |
| ENDDHLYIFGRN [TIM18 C-terminal 12 aa] | 0.743 ± 0.033 | 0.731 ± 0.045 |
| PAAWRALTQYIS [PTH1 C-terminal 12 aa] | 0.7186 ± 0.0024 | 0.348 ± 0.029 |
| TRFFDSKYFGCD [URK1 C-terminal 12 aa] | 0.701 ± 0.0078 | 0.73 ± 0.072 |
| EDGAVGNLFDDN [MSN5 C-terminal 12 aa] | 0.681 ± 0.018 | 0.667 ± 0.033 |
| SFYDNSLQTWIV [RRT2 C-terminal 12 aa] | 0.7484 ± 0.0042 | 0.752 ± 0.029 |
| RLYVSRLFISKL [ATP8 C-terminal 12 aa] | 0.801 ± 0.042 | 0.671 ± 0.14 |
| TTLCILFLFFTW [GOS1 C-terminal 12 aa] | 0.386 ± 0.0071 | 0.401 ± 0.014 |
| EKDELDNIEVSK [QCR7 C-terminal 12 aa] | 0.696 ± 0.0052 | 0.683 ± 0.0078 |
| GQALLDQFAKFK [LSC1 C-terminal 12 aa] | 0.721 ± 0.058 | 0.687 ± 0.021 |
| QEEEEDVATDSE [YRO2 C-terminal 12 aa] | 0.677 ± 0.014 | 0.711 ± 0.034 |
| QFFLAPKFNDEE [POL30 C-terminal 12 aa] | 0.712 ± 0.032 | 0.705 ± 0.023 |
| VKDFYKRLETLK [RRM3 C-terminal 12 aa] | 0.6914 ± 0.0038 | 0.7042 ± 0.0011 |
| KEDPDLRQSYQG [MGS1 C-terminal 12 aa] | 0.693 ± 0.016 | 0.649 ± 0.0099 |
| LRTTSSMEKKLN [ALG3 C-terminal 12 aa] | 0.7064 ± 0.00072 | 0.205 ± 0.0049 |
| EDHKFDLSTITV [MRPL24 C-terminal 12 aa] | 0.703 ± 0.01 | 0.717 ± 0.023 |
| GATEKRKCAKPF [CSL4 C-terminal 12 aa] | 0.674 ± 0.033 | 0.687 ± 0.029 |
| KLGEAEVQGLIM [YDR340W C-terminal 12 aa] | 0.721 ± 0.0023 | 0.688 ± 0.0056 |
| LYKRWVPGRNRD [SEN2 C-terminal 12 aa] | 0.696 ± 0.0095 | 0.696 ± 0.034 |
| FPVKSSPNAHTA [YLR334C C-terminal 12 aa] | 0.707 ± 0.018 | 0.687 ± 0.026 |
| HFNSSSPQKVEF [LSM4 C-terminal 12 aa] | 0.721 ± 0.012 | 0.738 ± 0.03 |
| IAPIRIYKITKQ [EFM3 C-terminal 12 aa] | 0.686 ± 0.028 | 0.677 ± 0.039 |

| Sequence | protein stability index [1] | protein stability index (genetic background: wild type) |
| --- | --- | --- |
| TKKSSSHHRTGK [DIG1 C-terminal 12 aa] | 0.697 ± 0.014 | 0.688 ± 0.016 |
| YGTSYVFAISFK [YNL266W C-terminal 12 aa] | 0.602 ± 0.036 | 0.606 ± 0.0098 |
| AEIIDSLLEQIN [NSI1 C-terminal 12 aa] | 0.744 ± 0.019 | 0.6797 ± 0.0017 |
| YGSAPSLDSLFL [YJL067W C-terminal 12 aa] | 0.725 ± 0.02 | 0.6981 ± 0.0068 |
| ITTKRSLCSSKD [PEX25 C-terminal 12 aa] | 0.673 ± 0.015 | 0.695 ± 0.02 |
| IQAKLKISVHDI [BEM1 C-terminal 12 aa] | 0.674 ± 0.0062 | 0.681 ± 0.0069 |
| VPEFLLHRRNSI [NTE1 C-terminal 12 aa] |  | 0.75 ± 0.05 |
| KLGSYLRDYLRK [GLO3 C-terminal 12 aa] | 0.707 ± 0.0072 | 0.689 ± 0.0095 |
| GKQLLSPMGRAF [TKL2 C-terminal 12 aa] | 0.679 ± 0.022 | 0.6529 ± 0.0014 |
| STFSKPFSTISK [VHR2 C-terminal 12 aa] | 0.6906 ± 0.0026 | 0.682 ± 0.059 |
| LELQSRIESYLF [CNN1 C-terminal 12 aa] | 0.703 ± 0.0072 | 0.715 ± 0.047 |
| ILTAEKMRGNGN [RRP4 C-terminal 12 aa] | 0.686 ± 0.033 | 0.677 ± 0.027 |
| ATTSLNNPYGFR [TOS7 C-terminal 12 aa] | 0.675 ± 0.0069 | 0.663 ± 0.03 |
| MKRSASYTGAKV [TPS2 C-terminal 12 aa] | 0.7 ± 0.02 | 0.709 ± 0.043 |
| HWRSVYDEFGEL [APE1 C-terminal 12 aa] | 0.721 ± 0.01 | 0.701 ± 0.024 |
| LFYQTIGEFASL [ATF2 C-terminal 12 aa] | 0.706 ± 0.01 | 0.721 ± 0.037 |
| NKLKTLLAKIFD [IPI1 C-terminal 12 aa] | 0.708 ± 0.02 | 0.699 ± 0.053 |
| GNIVSQDLLDLF [APL2 C-terminal 12 aa] | 0.724 ± 0.034 | 0.7 ± 0.012 |
| HKTNLTRGSFYS [YIR020W-A C-terminal 12 aa] | 0.70525 ± 6.6e-05 | 0.708 ± 0.041 |
| YEEAVDLGWNKN [OYE3 C-terminal 12 aa] | 0.721 ± 0.009 | 0.714 ± 0.042 |
